Test results from publication PMC3196588.
pKd: −log10 of the molar value. Each block holds one substance with its values, some of them ahead of it.

Assays:
[1] = biological target: C3S mutant of human galectin-1 (human) (UniProt P09382); experiment: affinity chromatography; galectin-1 C3S (or its site B mutants) coupled to 1 ml NHS-activated Hi-Trap column; 0.1 ml serum from healthy individuals in 1.9 ml PBS circulated 30 min on ice; wash 32 column volumes PBS; elution with 150 mM lactose; bound proteins identified by SDS-PAGE, MALDI-TOF MS and western blot, IgM and haptoglobin quantitated by ELISA
[2] = biological target: C3S mutant of human galectin-1 (human) (UniProt P09382); experiment: affinity chromatography; galectin-1 C3S coupled to 1 ml NHS-activated Hi-Trap column; 0.1 ml serum from metastatic breast cancer patients in 1.9 ml PBS circulated 30 min on ice; wash 32 column volumes PBS; elution with 150 mM lactose; bound proteins identified by SDS-PAGE, MALDI-TOF MS and western blot, IgM and haptoglobin quantitated by ELISA
[3] = biological target: C3S mutant of human galectin-1 (human) (UniProt P09382); experiment: fluorescence polarisation; fluorescence anisotropy inhibition assay: haptoglobin as inhibitor of the interaction of galectin-1 or mutants with a fluorescein tagged thiodigalactoside-amid (tdga) probe; Kd from inhibitory potency, haptoglobin counted as the dimer
[4] = biological target: C3S mutant of human galectin-1 (human) (UniProt P09382); experiment: affinity chromatography; galectin-1 C3S (or C3S N34D) coupled to 1 ml column; 2 mg haptoglobin (pooled from human plasma) in 2 ml PBS circulated 30 min on ice; wash 32 column volumes PBS; elution with 150 mM lactose; unbound fraction rechromatographed

percent of IgM bound to galectin-1 (mean, healthy sera) [1]: 37% | percent of IgM bound to galectin-1 (mean, cancer sera) [2]: 28%
Substance: IgM (human serum) (from UniProt P01591 23-159) (complex)

pKd [3]: > 6.00
Substance: galectin-1 binding fraction of haptoglobin (from UniProt P00738 19-160; P00738 162-406) (complex)

percent bound to the column when rechromatographed [4]: < 1%
Substance: galectin-1 non-binding fraction of haptoglobin (from UniProt P00738 19-160; P00738 162-406) (complex)

pKd [3]: 5.60 | percent bound to the column [4]: 30% | percent of haptoglobin bound to galectin-1 (average, control sera) [1]: 30% | percent of haptoglobin bound to galectin-1 (average, cancer sera) [2]: 50%
Substance: haptoglobin (human, unfractionated) (from UniProt P00738 19-160; P00738 162-406) (complex)
